The target of this data set is hnRNPA2 WT (human, UniProt P22626-2 1-341). The experiment in a line: EMSA; not given in the material. The conditions noted are these: protein: recombinant; tags: N-terminal 6xHis (pET28a). On the technique in general: In EMSA bound probe runs differently from free probe, usually more slowly.
Chain of hnRNPA2 WT (P22626 other isoform, or with tags, fused parts or gaps): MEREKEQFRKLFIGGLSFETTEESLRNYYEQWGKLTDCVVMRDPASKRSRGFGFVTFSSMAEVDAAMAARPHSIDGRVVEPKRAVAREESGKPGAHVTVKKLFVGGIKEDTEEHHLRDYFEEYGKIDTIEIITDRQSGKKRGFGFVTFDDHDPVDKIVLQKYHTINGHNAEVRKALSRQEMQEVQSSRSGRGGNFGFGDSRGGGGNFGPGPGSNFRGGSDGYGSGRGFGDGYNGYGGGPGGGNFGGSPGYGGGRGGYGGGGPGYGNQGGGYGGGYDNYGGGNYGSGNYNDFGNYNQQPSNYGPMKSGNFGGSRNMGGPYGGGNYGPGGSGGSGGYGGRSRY

TTAGGGTTAGGGTTAGGGTTAGGGTTAGGG (ssDNA) [single-stranded telomeric DNA probe]: the binding result is recorded as “binds”.

For the origin of these results see article PMC6241121, “hnRNPA2 mediated acetylation reduces telomere length in response to mitochondrial dysfunction”.
